# Measured values published in IntAct's records for PubMed 36931259.
# B1: 14-3-3 protein sigma (Homo sapiens), P31947 (parent)
# chain: MERASLIQKAKLAEQAERYEDMAAFMKGAVEKGEELSCEERNLLSVAYKNVVGGQRAAWRVLSSIEQKSNEEGSEEKGPEVREYREKVETELQGVCDTVLGLLDSHLIKEAGDAESRVFYLKMKGDYYRYLAEVATGDDKKRIIDSARSAYQEAMDISKKEMPPTNPIRLGLALNFSVFHYEIANSPEEAISLAKTTFDEAMADLHTLSEDSYKDSTLIMQLLRDNLTLWTADNAGEEGGEAPQEPQS
# partner: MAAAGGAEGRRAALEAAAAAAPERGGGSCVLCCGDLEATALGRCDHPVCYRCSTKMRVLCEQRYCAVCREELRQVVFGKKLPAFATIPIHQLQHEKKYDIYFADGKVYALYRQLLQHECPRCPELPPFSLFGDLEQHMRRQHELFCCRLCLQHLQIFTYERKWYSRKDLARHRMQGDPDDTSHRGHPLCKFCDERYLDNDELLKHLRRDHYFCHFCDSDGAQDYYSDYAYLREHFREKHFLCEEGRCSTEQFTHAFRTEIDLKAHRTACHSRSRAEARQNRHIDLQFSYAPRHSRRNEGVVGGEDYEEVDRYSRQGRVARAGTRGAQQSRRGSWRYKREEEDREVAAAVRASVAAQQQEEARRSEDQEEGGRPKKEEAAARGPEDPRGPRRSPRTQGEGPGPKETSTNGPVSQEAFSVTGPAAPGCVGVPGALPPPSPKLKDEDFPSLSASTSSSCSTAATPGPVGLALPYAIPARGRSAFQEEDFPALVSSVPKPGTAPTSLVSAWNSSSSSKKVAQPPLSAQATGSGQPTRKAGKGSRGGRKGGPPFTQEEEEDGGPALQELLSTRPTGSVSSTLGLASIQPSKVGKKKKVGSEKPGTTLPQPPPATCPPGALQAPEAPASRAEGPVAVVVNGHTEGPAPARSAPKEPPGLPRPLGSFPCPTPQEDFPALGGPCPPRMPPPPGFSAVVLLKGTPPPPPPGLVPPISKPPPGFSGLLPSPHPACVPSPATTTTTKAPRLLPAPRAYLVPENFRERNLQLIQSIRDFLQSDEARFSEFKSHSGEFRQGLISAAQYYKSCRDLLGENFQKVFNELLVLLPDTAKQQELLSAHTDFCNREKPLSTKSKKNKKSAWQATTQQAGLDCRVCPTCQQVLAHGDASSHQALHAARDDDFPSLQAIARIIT
# B2: 14-3-3 protein sigma (Homo sapiens), P31947 (parent)
# chain: B1 chain
# partner: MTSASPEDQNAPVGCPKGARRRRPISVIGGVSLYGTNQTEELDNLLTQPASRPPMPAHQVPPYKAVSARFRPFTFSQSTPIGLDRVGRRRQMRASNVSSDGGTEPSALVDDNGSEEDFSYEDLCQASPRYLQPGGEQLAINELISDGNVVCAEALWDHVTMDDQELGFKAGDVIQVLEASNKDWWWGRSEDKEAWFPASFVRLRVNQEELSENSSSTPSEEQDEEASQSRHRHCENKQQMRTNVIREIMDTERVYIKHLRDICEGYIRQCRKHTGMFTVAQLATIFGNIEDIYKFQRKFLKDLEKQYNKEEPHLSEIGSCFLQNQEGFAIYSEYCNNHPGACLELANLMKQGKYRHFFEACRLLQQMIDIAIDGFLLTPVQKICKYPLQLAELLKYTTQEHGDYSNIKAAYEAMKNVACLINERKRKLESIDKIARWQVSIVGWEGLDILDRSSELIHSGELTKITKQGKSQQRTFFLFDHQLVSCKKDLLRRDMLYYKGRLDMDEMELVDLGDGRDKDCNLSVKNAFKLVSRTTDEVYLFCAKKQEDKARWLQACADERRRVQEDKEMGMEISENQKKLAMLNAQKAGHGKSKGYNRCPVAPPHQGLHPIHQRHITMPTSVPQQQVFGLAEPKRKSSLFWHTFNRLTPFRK
# B3: 14-3-3 protein sigma (Homo sapiens), P31947 (parent)
# chain: B1 chain
# partner: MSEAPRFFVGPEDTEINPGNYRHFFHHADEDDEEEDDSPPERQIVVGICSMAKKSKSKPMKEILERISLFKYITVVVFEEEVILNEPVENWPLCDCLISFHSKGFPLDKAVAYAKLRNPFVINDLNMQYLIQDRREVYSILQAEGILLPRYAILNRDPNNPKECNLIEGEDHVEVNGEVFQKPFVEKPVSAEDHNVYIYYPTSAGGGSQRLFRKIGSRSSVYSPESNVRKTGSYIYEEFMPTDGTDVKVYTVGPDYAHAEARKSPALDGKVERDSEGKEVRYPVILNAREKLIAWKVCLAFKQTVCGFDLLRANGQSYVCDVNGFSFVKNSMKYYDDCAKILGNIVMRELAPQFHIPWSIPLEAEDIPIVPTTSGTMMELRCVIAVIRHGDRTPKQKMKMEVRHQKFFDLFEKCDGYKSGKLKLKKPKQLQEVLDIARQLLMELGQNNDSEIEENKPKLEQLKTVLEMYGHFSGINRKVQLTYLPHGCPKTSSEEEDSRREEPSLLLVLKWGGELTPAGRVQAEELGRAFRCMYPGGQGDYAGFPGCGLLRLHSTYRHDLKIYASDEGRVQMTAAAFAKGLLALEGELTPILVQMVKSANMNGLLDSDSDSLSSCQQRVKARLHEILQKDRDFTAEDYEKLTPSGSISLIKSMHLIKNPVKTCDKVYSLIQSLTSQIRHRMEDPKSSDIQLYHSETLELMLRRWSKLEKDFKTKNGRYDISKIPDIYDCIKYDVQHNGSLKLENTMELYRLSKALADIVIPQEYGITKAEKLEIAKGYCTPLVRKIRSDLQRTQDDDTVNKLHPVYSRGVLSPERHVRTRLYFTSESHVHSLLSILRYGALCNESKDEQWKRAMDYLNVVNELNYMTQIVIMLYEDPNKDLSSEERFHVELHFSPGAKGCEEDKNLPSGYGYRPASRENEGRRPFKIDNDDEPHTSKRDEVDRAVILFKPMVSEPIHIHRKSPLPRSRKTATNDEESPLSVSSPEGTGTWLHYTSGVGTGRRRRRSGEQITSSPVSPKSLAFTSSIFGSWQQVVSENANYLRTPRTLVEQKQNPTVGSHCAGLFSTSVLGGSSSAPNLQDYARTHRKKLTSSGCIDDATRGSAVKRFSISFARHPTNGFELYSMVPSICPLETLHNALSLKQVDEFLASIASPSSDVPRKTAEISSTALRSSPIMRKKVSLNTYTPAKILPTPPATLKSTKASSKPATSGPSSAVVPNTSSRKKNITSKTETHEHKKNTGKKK
# B4: 14-3-3 protein sigma (Homo sapiens), P31947 (parent)
# chain: B1 chain
# partner: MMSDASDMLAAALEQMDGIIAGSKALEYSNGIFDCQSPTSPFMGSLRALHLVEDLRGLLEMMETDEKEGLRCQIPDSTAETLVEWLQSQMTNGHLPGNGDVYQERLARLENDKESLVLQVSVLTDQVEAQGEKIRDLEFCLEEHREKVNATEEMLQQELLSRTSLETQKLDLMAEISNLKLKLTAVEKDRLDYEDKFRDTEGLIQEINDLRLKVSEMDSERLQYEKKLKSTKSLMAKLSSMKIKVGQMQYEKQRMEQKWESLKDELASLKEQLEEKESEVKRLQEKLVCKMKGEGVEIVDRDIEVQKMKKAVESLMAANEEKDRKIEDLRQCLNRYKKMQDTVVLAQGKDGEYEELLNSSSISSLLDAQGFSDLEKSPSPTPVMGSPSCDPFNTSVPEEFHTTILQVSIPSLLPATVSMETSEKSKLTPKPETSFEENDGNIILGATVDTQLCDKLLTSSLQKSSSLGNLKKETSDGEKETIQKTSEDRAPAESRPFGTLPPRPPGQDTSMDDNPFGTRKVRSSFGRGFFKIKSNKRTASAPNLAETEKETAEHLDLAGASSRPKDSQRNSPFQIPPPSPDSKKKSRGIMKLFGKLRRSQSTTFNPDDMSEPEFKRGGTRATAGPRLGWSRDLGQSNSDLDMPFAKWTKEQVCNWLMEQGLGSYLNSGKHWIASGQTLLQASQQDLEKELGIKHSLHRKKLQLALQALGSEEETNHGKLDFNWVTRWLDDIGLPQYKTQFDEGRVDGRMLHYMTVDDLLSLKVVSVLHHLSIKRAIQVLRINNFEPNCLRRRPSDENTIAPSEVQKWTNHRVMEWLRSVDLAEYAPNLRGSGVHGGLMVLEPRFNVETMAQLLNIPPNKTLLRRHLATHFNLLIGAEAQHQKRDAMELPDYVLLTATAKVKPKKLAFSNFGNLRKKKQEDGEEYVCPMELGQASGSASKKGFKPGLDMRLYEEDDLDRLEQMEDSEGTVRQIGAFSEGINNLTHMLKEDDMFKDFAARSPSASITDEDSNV
# B5: Serine/arginine-rich splicing factor 10 (Homo sapiens), O75494 (parent)
# chain: MSRYLRPPNTSLFVRNVADDTRSEDLRREFGRYGPIVDVYVPLDFYTRRPRGFAYVQFEDVRDAEDALHNLDRKWICGRQIEIQFAQGDRKTPNQMKAKEGRNVYSSSRYDDYDRYRRSRSRSYERRRSRSRSFDYNYRRSYSPRNSRPTGRPRRSRSHSDNDRFKHRNRSFSRSKSNSRSRSKSQPKKEMKAKSRSRSASHTKTRGTSKTDSKTHYKSGSRYEKESRKKEPPRSKSQSRSQSRSRSKSRSRSWTSPKSSGH
# partner: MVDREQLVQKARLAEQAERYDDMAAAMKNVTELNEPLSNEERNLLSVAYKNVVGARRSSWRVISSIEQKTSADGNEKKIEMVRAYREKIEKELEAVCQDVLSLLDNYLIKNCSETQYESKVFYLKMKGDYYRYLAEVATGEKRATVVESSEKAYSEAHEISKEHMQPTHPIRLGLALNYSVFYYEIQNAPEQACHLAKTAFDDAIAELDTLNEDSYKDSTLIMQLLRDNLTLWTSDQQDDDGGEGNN
# B6: 14-3-3 protein sigma (Homo sapiens), P31947 (parent)
# chain: B1 chain
# partner: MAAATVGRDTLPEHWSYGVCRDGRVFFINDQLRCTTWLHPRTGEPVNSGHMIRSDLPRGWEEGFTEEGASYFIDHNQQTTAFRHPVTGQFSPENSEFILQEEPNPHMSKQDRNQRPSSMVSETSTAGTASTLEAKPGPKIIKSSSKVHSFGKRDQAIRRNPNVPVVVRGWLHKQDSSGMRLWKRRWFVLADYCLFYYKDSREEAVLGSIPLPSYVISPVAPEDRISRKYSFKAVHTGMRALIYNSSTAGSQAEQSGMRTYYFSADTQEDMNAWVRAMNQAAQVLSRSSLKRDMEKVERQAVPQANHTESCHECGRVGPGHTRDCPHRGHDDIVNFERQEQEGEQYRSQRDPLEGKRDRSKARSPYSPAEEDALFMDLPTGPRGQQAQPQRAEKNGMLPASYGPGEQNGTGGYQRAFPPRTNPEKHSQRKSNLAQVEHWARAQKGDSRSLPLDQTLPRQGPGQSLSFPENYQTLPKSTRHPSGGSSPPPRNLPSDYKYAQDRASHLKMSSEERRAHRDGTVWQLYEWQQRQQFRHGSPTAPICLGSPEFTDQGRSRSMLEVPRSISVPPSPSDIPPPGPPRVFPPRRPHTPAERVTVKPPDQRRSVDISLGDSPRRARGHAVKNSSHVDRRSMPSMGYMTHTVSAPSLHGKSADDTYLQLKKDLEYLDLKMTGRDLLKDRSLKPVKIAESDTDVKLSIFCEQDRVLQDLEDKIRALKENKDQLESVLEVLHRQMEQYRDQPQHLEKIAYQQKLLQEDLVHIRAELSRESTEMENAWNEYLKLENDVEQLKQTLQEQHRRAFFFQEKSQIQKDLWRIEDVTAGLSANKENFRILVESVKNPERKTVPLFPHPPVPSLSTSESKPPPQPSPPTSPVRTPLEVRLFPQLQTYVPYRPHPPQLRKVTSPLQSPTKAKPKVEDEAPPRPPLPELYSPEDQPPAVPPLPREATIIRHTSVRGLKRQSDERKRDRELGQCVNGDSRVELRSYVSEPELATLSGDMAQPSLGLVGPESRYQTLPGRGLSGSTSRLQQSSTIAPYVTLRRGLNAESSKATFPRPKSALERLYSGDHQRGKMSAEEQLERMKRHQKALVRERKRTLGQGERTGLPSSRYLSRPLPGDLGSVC
# Variants of: B1
# Settings: with zn598_human ZNF598, Q86UK7
row,effect of a mutation on the interaction,Variant
1,decreasing interaction strength,K49E;R56E;V178D

# Variants of: B2
# Settings: with spt13_human SPATA13, Q96N96
row,effect of a mutation on the interaction,Variant
1,decreasing interaction strength,K49E;R56E;V178D

# Variants of: B3
# Settings: with vip2_human PPIP5K2, O43314
row,effect of a mutation on the interaction,Variant
1,decreasing interaction strength,K49E;R56E;V178D

# Variants of: B4
# Settings: with lipb1_human PPFIBP1, Q86W92
row,effect of a mutation on the interaction,Variant
1,decreasing interaction strength,K49E;R56E;V178D

# Variants of: B5
# Settings: with 1433g_human YWHAG
row,effect of a mutation on the interaction,Variant
1,disrupting interaction strength,S121A;S123A;S131A;S133A;S143A;S158A;S160A;S199A;S201A;S249A;S253A;T255A

# Variants of: B6
# Settings: with pkha7_human PLEKHA7, Q6IQ23
row,effect of a mutation on the interaction,Variant
1,decreasing interaction strength,K49E;R56E;V178D
